For one assay, the system named is caspase-3. Briefly: Caspase-3 activity in human corneal epithelial cells treated with TNF. In kind it is cell-based. The settings on record: FIG. 11. The procedure: FIG. 11 graphically illustrates the ability of lacritin and fragments of lacritin to inhibit the ability of tumor necrosis factor (TNF) to regulate caspase-3 activity in human corneal epithelial cells. Go6976 is an inhibitor of protein kinase C. The ordinate represents relative fluorescence units. White bars indicate 3 hours and diagonally-hatched bars indicate 6 hours.
Lacritin-induced proliferation and calcium signaling was studied in the human corneal epithelial (HCE) cell line. HCE cells were grown at 37° C. in DMEM F/12 supplemented with 10% FBS and 50 μg/ml gentamicin. Each experiment was done in a dose- and time-dependent manner using TNF-α (5-20 ng/ml) and lacritin (1-10 nM). Cell viability was measured spectrophotometrically at an absorbance of 570 nm using the MTT assay. Caspase-8 activity was detected fluorometrically by measuring cleavage of the fluorogenic substrate IETD-pNA at an excitation wavelength of 405 nm. Lacritin-induced cell proliferation was studied by H3-thymidine incorporation and via fluorescence-based detection of PKC, PLC and cAMP. Calcium signaling was detected by confocal microscopy of Fluo-4 loaded cells.

For assay [1], the system named is p42 and p44 MAPK (MAPK1 and MAPK3). Briefly: p42/p44 MAPK activation blot in HSG cells. In kind it is cell-based, human. The method, then: For phosphotyrosine blotting and mitogenesis assays, cells in serum-containing media were seeded overnight in 24-well plates at a density of 0.5×10^5 cells/mm^2 corresponding to 20-30% confluency after cell attachment, incubated in serum-free media without supplements for 24 h (phosphotyrosine) or washed with serum-free media without supplements three times (mitogenesis) and incubated with lacritin (1-1000 nM), or positive controls EGF (1.6 nM) and 10% fetal bovine serum, or negative controls bovine serum albumin or no additive in serum-free media without supplements for the indicated times (phosphotyrosine) or 30 h (mitogenesis). […] After washing, bound antibodies were detected with peroxidase-labeled secondary antibody and ECL. […] Incorporation was stopped with ice-cold phosphate buffered saline and followed by addition of cold and then room temperature trichloracetic acid (10%) for 10 min each, washing of cells with phosphate buffered saline, solubilization with 1 N sodium hydroxide, neutralization with 1 N hydrochloric acid, addition of scintillation fluid and then quantitation in a scintillation counter. […] Seventy-two hours post-transfection, mitogenesis was assessed by co-addition of 10 […] lacritin and [^3H]-thymidine (2 mCi/ml) (Amersham, Piscataway N.J.) for 24 hrs. […]

Assay [2] deals with human submandibular ductal ('HSG') cells. Briefly: HSG ductal cell number in serum-free medium after four days. In kind it is cell-based. The settings on record: BSA 10 ng/ml control. The method, then: FIGS. 2A and 2B represent lacritin-induced proliferation and tyrosine phosphorylation. FIG. 2A is a graphic representation of the number of human salivary gland (HSG) cells was determined four days after administering various amounts of lacritin (0 to 10 ng/ml of lacritin) to HSG cells in serum-free medium. FIG. 2B is a bar graph representing the proliferation of HSG cells upon administration of BSA (lane 1; 10 ng/ml) or serum (lane 2; 10%) was added for the same period of time. All experiments were performed on laminin-1-(0.05 μM) coated wells.
Quiescent human submandibular ductal (‘HSG’) cells were cultured in serum-free media containing increasing amounts of lacritin and cell proliferation was studied.

In a further assay the test system is HSG cells. Briefly: FACS analysis of apoptosis (sub G0/G1) of HSG cells in nutrient depleted medium. In kind it is cell-based, human. The method, then:
HSG cells were cultured for different times in alpha-MEM medium, with or without lacritin (0.4 nM), then fixed with ice-old 70% ethanol and stained with propidium iodide at saturating condition, and examined by FACS. FIG. 3A is a bar graph of the resulting data plotting the number of cells entering apoptosis (the sub G0/G1 population) vs. time. After 24 hrs, cells without lacritin show very large DNA fragmentation or apoptosis. FIGS. 3B and 3C are graphic representations of flow cytometry readings showing that significant DNA fragmentation occurs in the cells cultured in the absence of lacritin (a sub G0/G1 population is indicated as a left shoulder of the large peak of FIG. 3B) but not present in FIG. 3C).
Subsequent flow cytometry (FACS) analysis was carried out to monitoring the time course of cell death and survival promotion function of lacritin. […] Lacritin protected cells from death in nutrient depleted medium (alpha MEM) up to 96 hours or longer. Cells cultured in the absence of lacritin undergo apoptosis starting at about 24 hours and over 50% cells are apoptotic after 48 hours of culture.
(Flow cytometry measures light scatter and fluorescence of single cells or particles in a stream.)

Turning to `Cn1c2ccccc2c2c3c(c4c5ccccc5n(CCC#N)c4c21)CNC3=O` [Go 6976], in the assay with caspase-3, the “protection from cell death by TNF (caspase-3 activity)” value is on record as “do not protect”.

B1: lacritin: recombinant human lacritin from E. coli; mature 119 residue fragment (SEQ ID NO:10) of native lacritin SEQ ID NO:4 (protein, listed as Homo sapiens)
chain: EDASSDSTGADPAQEAGTSKPNEEISGPAEPASPPETTTTAQETSAAAVQGTAKVTSSRQELNPLKSIVEKSILLTEQALAKAGKGMHGGVPGGKQFIENGSEFAQKLLKKFSLLKPWA
B1: the “activation of p42 and p44 MAPK” value in assay [1] is reported as “no activation”. Moreover, in assay [2], the “ductal cell number relative to BSA negative control” value is “more than twofold”. Further, the DNA fragmentation entry with HSG cells (lacritin 10 ng/ml, alpha MEM) is listed as “no noticeable DNA fragmentation”. For the same molecule, the “duration of protection from death” value in the assay on HSG cells (nutrient depleted medium (alpha MEM)) is at least 96 h.

These data come from patent US7648964B2, “Use of lacritin in promoting ocular cell survival” (University of Virginia Patent Foundation, priority 2004, dated 2010).
